Assay results taken from PMC3656124, “DNA Topoisomerase II Is Involved in Regulation of Cyst Wall Protein Genes and Differentiation in Giardia lamblia” (PLoS Neglected Tropical Diseases, 2013).

Assays:
[1] = substrate: Nc1ncnc2c1ncn2[C@@H]1O[C@H](COP(=O)(O)OP(=O)(O)OP(=O)(O)O)[C@@H](O)[C@H]1O; assay: coupled pyruvate kinase/lactate dehydrogenase ATPase assay (NADH, A340), Lineweaver-Burk; assay type: biochemical, Giardia duodenalis; details: without DNA, 37 °C, 8 ng Topo II
Topo IIC [2] = biological target: T1, Topo IIC (Giardia lamblia, UniProt E2RU90 489-1491); assay: EMSA; EMSA: 0.02 pmol 5'-labeled probe, 5 ng protein, 20 ul, 0.5 ug poly(dI-dC), 15 min, room temperature, 6% acrylamide gel; buffer, salt and pH only by citation; details: protein: recombinant; tags: C-terminal V5-His; chain copies: 2
T1 sequence: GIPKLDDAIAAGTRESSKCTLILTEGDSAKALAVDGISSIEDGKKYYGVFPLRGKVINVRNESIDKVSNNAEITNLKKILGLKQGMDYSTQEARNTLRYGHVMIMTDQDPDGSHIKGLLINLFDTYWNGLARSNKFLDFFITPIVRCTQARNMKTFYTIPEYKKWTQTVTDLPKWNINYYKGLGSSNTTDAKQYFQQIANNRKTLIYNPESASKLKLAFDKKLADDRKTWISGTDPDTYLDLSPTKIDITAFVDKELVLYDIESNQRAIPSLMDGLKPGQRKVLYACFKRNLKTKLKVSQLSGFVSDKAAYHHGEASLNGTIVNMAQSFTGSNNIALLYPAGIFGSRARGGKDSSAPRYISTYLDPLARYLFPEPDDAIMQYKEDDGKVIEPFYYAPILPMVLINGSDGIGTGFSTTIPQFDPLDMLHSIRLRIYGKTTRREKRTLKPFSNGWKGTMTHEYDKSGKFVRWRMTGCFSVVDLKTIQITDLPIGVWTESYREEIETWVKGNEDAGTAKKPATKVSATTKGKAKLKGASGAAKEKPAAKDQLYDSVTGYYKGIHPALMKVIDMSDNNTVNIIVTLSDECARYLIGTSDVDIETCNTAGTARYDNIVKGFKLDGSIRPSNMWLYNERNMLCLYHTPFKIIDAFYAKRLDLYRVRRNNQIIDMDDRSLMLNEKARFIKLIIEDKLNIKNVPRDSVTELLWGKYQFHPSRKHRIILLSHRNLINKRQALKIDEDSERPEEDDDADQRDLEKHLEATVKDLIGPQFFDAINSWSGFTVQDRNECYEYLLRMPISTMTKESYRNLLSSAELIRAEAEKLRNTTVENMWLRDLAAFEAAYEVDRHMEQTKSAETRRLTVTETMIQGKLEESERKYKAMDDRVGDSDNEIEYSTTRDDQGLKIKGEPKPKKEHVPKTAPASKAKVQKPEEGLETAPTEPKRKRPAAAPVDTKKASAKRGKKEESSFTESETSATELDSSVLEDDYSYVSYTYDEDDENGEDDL

Topo IIC [3] = biological target: T1, Topo IIC; assay: competition; 200-fold excess vs labeled IIBS; EMSA: 0.02 pmol 5'-labeled probe, 5 ng protein, 20 ul, 0.5 ug poly(dI-dC), 15 min, room temperature, 6% acrylamide gel; buffer, salt and pH only by citation; details: protein: recombinant; tags: C-terminal V5-His; chain copies: 2
Myb2 = biological target: T2, Myb2 (Giardia lamblia, UniProt Q8ISM2 1-530); assay: EMSA; EMSA: 0.02 pmol 5'-labeled probe, 5 ng protein, 20 ul, 0.5 ug poly(dI-dC), 15 min, room temperature, 6% acrylamide gel; buffer, salt and pH only by citation; details: protein: recombinant
T2 sequence: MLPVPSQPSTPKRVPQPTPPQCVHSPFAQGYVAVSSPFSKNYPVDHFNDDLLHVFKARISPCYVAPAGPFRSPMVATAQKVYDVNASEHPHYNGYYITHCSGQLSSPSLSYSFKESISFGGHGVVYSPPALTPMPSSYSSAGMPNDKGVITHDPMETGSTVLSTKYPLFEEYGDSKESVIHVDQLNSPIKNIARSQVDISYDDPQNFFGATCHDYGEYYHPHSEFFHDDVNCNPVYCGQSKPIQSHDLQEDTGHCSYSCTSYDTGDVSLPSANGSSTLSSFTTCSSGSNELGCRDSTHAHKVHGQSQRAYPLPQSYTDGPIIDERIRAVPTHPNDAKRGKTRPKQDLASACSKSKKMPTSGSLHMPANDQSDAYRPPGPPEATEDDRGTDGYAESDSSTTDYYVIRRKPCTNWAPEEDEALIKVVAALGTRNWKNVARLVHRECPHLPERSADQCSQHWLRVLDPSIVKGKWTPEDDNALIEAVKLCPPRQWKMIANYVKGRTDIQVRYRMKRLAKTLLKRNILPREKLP

B1: Topo II (Giardia lamblia ATCC 50803) (protein)
chain: MAQKAKIQRVTGSEHVLLRPDMYVGSVSAAETFLWLYEPGQGLYYTKANIVPGLCKIFDEIIVNASDNKQRDSDRSAEHKMTYIKCSVDVASGAISVENDGVEGLLHFDEKEKMYLPTLAFGILMTSSNYDDTEQRVTGGRNGYGAKLTNIFSTKFTVLLQENGQVFEQTWTDNMKNTKPPRIEDVRDKKKNFIRFSFTPDYMKFGMTSGLDRDHAAYMMRRAVDVAGCNIGLKLIINGTELKIANFEQYARMVYRSINPEITQFYETSKGDTAQVNTNDSDSDLDIKSAAKAKPKTKRTKKTIETNSLLIPVDDLSKPSDWTHDYLKVIPVNKFWDIGLGYTDSGELVQVSFVNSINTTDGGTHVDAILDLIMSQLNDVLIKSFQQDAKNAKKLTRQQLKSCLVLFIRSLVVNPSFDSQTKISLKTDKAALLRSLGSTQAELATLATQLVKRIQEIRPLWNSLRQASYNQAAKLLTKTDGSKTSQLLGIPKLDDAIAAGTRESSKCTLILTEGDSAKALAVDGISSIEDGKKYYGVFPLRGKVINVRNESIDKVSNNAEITNLKKILGLKQGMDYSTQEARNTLRYGHVMIMTDQDPDGSHIKGLLINLFDTYWNGLARSNKFLDFFITPIVRCTQARNMKTFYTIPEYKKWTQTVTDLPKWNINYYKGLGSSNTTDAKQYFQQIANNRKTLIYNPESASKLKLAFDKKLADDRKTWISGTDPDTYLDLSPTKIDITAFVDKELVLYDIESNQRAIPSLMDGLKPGQRKVLYACFKRNLKTKLKVSQLSGFVSDKAAYHHGEASLNGTIVNMAQSFTGSNNIALLYPAGIFGSRARGGKDSSAPRYISTYLDPLARYLFPEPDDAIMQYKEDDGKVIEPFYYAPILPMVLINGSDGIGTGFSTTIPQFDPLDMLHSIRLRIYGKTTRREKRTLKPFSNGWKGTMTHEYDKSGKFVRWRMTGCFSVVDLKTIQITDLPIGVWTESYREEIETWVKGNEDAGTAKKPATKVSATTKGKAKLKGASGAAKEKPAAKDQLYDSVTGYYKGIHPALMKVIDMSDNNTVNIIVTLSDECARYLIGTSDVDIETCNTAGTARYDNIVKGFKLDGSIRPSNMWLYNERNMLCLYHTPFKIIDAFYAKRLDLYRVRRNNQIIDMDDRSLMLNEKARFIKLIIEDKLNIKNVPRDSVTELLWGKYQFHPSRKHRIILLSHRNLINKRQALKIDEDSERPEEDDDADQRDLEKHLEATVKDLIGPQFFDAINSWSGFTVQDRNECYEYLLRMPISTMTKESYRNLLSSAELIRAEAEKLRNTTVENMWLRDLAAFEAAYEVDRHMEQTKSAETRRLTVTETMIQGKLEESERKYKAMDDRVGDSDNEIEYSTTRDDQGLKIKGEPKPKKEHVPKTAPASKAKVQKPEEGLETAPTEPKRKRPAAAPVDTKKASAKRGKKEESSFTESETSATELDSSVLEDDYSYVSYTYDEDDENGEDDL
- Km [1]: 210 µM

B2: 18S-30/-1 (dsDNA)
DNA 1: GGCGCCCGGCCCGCGGCGCCCGCGCCCGGC
DNA 2: GCCGGGCGCGGGCGCCGCGGGCCGGGCGCC
- binding result (Topo IIC [2]): no binding

B3: 18S-60/-31 (dsDNA)
DNA 1: CCGTGCCAGGCGGCGGCCCCCGCGCAGGGA
DNA 2: TCCCTGCGCGGGGGCCGCCGCCTGGCACGG
- binding result (Topo IIC [2]): no binding

B4: cwp2-30/+8 (dsDNA)
DNA 1: CAGCAGCTCAACAGTGGCTGGGAAAATAAAATGATCGC
DNA 2: GCGATCATTTTATTTTCCCAGCCACTGTTGAGCTGCTG
- binding result (Topo IIC [3]): binds

B5: cwp3-30/+10 (dsDNA)
DNA 1: GTCTTTCCCAAAAAATAAGTTACTACTGATATGTTTTCTC
DNA 2: GAGAAAACATATCAGTAGTAACTTATTTTTTGGGAAAGAC
- binding result (Topo IIC [3]): binds

B6: ran-51/-20 (dsDNA)
DNA 1: TAAAATAAATTAAATCGAAATTAAAACTTTAA
DNA 2: TTAAAGTTTTAATTTCGATTTAATTTATTTTA
- binding result (Topo IIC [3]): binds

B7: poly(A) (dsDNA)
DNA 1: AAAAAAAAAAAAAAAAAAAAAAA
DNA 2: TTTTTTTTTTTTTTTTTTTTTTT
- binding result (Topo IIC [3]): binds

B8: poly(A) with TT insertion (dsDNA)
DNA 1: AAAAAAAAAAATTAAAAAAAAAA
DNA 2: TTTTTTTTTTAATTTTTTTTTTT
- binding result (Topo IIC [3]): binds

B9: poly(A) with TC insertion (dsDNA)
DNA 1: AAAAAAAAAAATCAAAAAAAAAA
DNA 2: TTTTTTTTTTGATTTTTTTTTTT
- binding result (Topo IIC [3]): binds

B10: cwp1-90/-46 (dsDNA)
DNA 1: CTGGCTAACAGTCTACAGTCTACAATTTACAGTATACAATCTACA
DNA 2: TGTAGATTGTATACTGTAAATTGTAGACTGTAGACTGTTAGCCAG
- binding result (Myb2; label: 5'-32P for Myb2): binds

B11: topo II-85/-40 (dsDNA)
DNA 1: TGTAAATCAATATTATCGTCCTACAGCTGCTAGCTTGGTGACAGGA
DNA 2: TCCTGTCACCAAGCTAGCAGCTGTAGGACGATAATATTGATTTACA
- binding result (Myb2; label: 5'-32P): binds

B12: cwp1-45/-1 (dsDNA)
DNA 1: GTTTACAACTCTCAGATCAAGAAACACAGAAATAAAATATCAGGG
DNA 2: CCCTGATATTTTATTTCTGTGTTTCTTGATCTGAGAGTTGTAAAC
- binding result (Topo IIC [2]): binds
